This is an account of results in patent US7063946B2, “Methods, reagents, kits and apparatus for protein function analysis” (Meso Scale Technologies, LLC., priority 2001, dated 2006).

Assay [1] deals with autophosphorylation (phosphotyrosine). In words: In vitro kinase library screen: autophosphorylation. It counts as biochemical. As to the method:
Proteins were produced from DNA plasmids of Mock Luciferase, Promega, tyrosine kinase clone Spleen Tyrosine kinase (SYK, IMAGE ID# 3870426) and Eph receptor-A7 (EphA7, IMAGE ID# 3991628) (Incyte Genomics, CA) and immobilized on streptavidin or avidin coated NPT-IPR plates as described in the Example 7. To promote autophosphorylation in these immobilized and purified proteins, Mn++ ions were added in a 50 μl reaction containing 5 mM MgCl2, 5 mM MnCl2, 100 μM ATP, 25 mM Tris-HCl buffer pH 7.4, 0.05 mM Na3VO4, 0.004% TritonX-100, 2 mM DTT and EDTA-free protease inhibitor (Roche Molecular Biochemicals). This mixture was incubated with shaking at room temperature overnight to allow autophosphorylation. Following this incubation, wells were washed 2 times with TT-buffer and 2 times with water. Following this step, 50 ng Sulfo-TAG labeled anti-phosphotyrosine in buffer containing 25 mM Tris-HCl buffer pH 7.4, 5 mM MgCl2, 0.05 mM Na3VO4, 0.004% TritonX-100, 2 mM DTT and 0.05% IgG in a final volume of 50 μl was added followed by incubation at room temperature for 45 min. The unbound reagents were removed by one time washing with water, and the TAG label was detected in presence of 150 μl IPR assay buffer (0.4 mM Gly—Gly buffer, pH 7.8, 1 mM EDTA, 0.1 M TPA). The ECL signals were measured using an imaging plate reader.
(§1) Proteins were produced in an in vitro transcription and translation reaction as described in the Materials and Methods. […] The reaction was stopped by mixing with BB2 buffer. Biotinylated proteins from 50 μl of the mixture (representing 0.5 μl to 5 μl of TnT reaction) were immobilized onto streptavidin or avidin coated NPT-IPR plates by shaking at room temperature for 45 min. The activity of the immobilized protein towards pEY or autophosphorylation was further assayed by the methods described in examples 7 and 8.

In the next assay the test system is pEY. In words: In vitro kinase library screen: activity towards pEY. To be noted: 5 ul of expressed protein. In kind it is biochemical. As to the method: Proteins were produced in an in vitro transcription and translation reaction. […] The unbound components of the reaction containing endogenous kinases were removed by three washes with TT-buffer (25 mM Tris-HCl buffer pH 7.4 and 0.004% Triton), two five minutes washings with high-salt wash buffer (25 mM Tris-HCl buffer pH 7.4, 0.004% Triton, 1M NaCl and 5 mM DTT) and 3 more washes with TT-buffer. To these immobilized and purified proteins a tyrosine kinase substrate, 5 nM pEY (poly Glu-Tyr, Sigma, MO), was added in a 50 μl reaction solution containing 5 mM MgCl2, 5 mM MnCl2, 100 μM ATP, 25 mM Tris-HCl buffer pH 7.4, 0.05 mM Na3VO4, 0.004% TritonX-100, 2 mM DTT and EDTA-free protease inhibitor (Roche Molecular Biochemicals). This mixture was incubated with shaking at room temperature overnight to allow phosphorylation of the pEY substrate by the immobilized kinases. Following this incubation, 45 μl of this mixture was transferred to a streptavidin or avidin-coated NPT IPR plate coated with biotinylated anti-phosphotyrosine antibody (PY20, Zymed labs, CA) followed by incubation for 30 minutes at room temperature to allow the binding of the phosphorylated pEY substrate to the PY20 coated NPT plate. Following this binding step, 50 ng Sulfo-TAG labeled anti-phosphotyrosine in buffer containing 25 mM Tris-HCl buffer pH 7.4, 5 mM MgCl2, 0.05 mM Na3VO4, 0.004% TritonX-100, 2 mM DTT and 0.05% IgG was added followed by incubation at room temperature for 30 mm. The unbound reagents were removed by one time washing with water, and the TAG label was detected in presence of 150 μl IPR assay buffer (0.4 mM Gly-Gly buffer, pH 7.8, 1 mM EDTA, 0.1 M TPA). The ECL signals were measured using an imaging plate reader.
as §1

The subject of assay [2] is pooled phosphopeptide:BSA conjugates (Pools A-D). The assay can be described thus: Coded multiplex phosphopeptide binding assay with pooled peptide:BSA conjugates on 4 spots. The source says:
To prepare the Multi-Spot IPR plates, in this example we made use of pools of the peptide:BSA conjugates to coat each of 4 spots per well in a 96 well plate. To achieve this we made the following pools; • Pool A; EGFR-pTyr1148, IkBa-24ppC, Myc-p58Tp62S. • Pool B; EGFR-pTyr992, EGFR-pTyr1148, Smad3C. • Pool C; EGFR-pTyr1068, IkBa-24ppC, Smad3C. • Pool D; EGFR-pTyr992, EGFR-pTyr1068, Myc-p58Tp62S.
This combination of the various peptides results in any single peptide being present in two pools. Each of these four pools is then spotted on to a unique spot in a 4 spot array. In this way any single binding protein with specificity for only one of the peptides would bind to two spots; the identity of the two spots would allow the identification of the peptide involved in the binding reaction.
Typically approximately 120 fmole of peptide:BSA conjugate in 0.25 μl was deposited on each spot of a 4-spot multi-array IPR plates using a BioDot Dispenser (Bio-Dot Inc., vIrvine Calif.). At this stage, the plates were dried then used or stored under desiccated condition. A few hours prior to usage, the plates were rehydrated and blocked with 3% BSA, in PBS.
To test the system the following EST clones IMAGE # 3491843, 4237375, 4398016, 4419252, 3872466, 3907115 were obtained. These clones express the following genes βTRCP1, βTRCP2, Grb2, PLCγ, CBP and Shc1, respectively. […] These DNAs were used to produce proteins as described in the Materials and Methods. Proteins were transferred to a well of the 4 spot peptide-coated and BSA blocked ECL plates. The binding assay (using Sulfo-TAG labeled streptavidin as a detection agent) was carried our according to the procedures described in Example 11.

B1: 3978518: IMAGE clone protein: Hck, hemopoietic cell kinase (protein, UniProt P08103 2-524, looked up)
Tyrosine-protein kinase HCK: GGRSSCEDPGCPRSEGRAPRMGCVKSRFLRDGSKASKTEPSANQKGPVYVPDPTSSSKLGPNNSNSMPPGFVEGSEDTIVVALYDYEAIHREDLSFQKGDQMVVLEEAGEWWKARSLATKKEGYIPSNYVARVNSLETEEWFFKGISRKDAERHLLAPGNMLGSFMIRDSETTKGSYSLSVRDFDPQHGDTVKHYKIRTLDSGGFYISPRSTFSSLQELVLHYKKGKDGLCQKLSVPCVSPKPQKPWEKDAWEIPRESLQMEKKLGAGQFGEVWMATYNKHTKVAVKTMKPGSMSVEAFLAEANLMKSLQHDKLVKLHAVVSQEPIFIVTEFMAKGSLLDFLKSEEGSKQPLPKLIDFSAQISEGMAFIEQRNYIHRDLRAANILVSASLVCKIADFGLARIIEDNEYTAREGAKFPIKWTAPEAINFGSFTIKSDVWSFGILLMEIVTYGRIPYPGMSNPEVIRALEHGYRMPRPDNCPEELYNIMIRCWKNRPEERPTFEYIQSVLDDFYTATESQYQQQP
Regarding B1, the ECL signal in assay [1] is 301,418. The HTS signal in the assay on pEY is on record as 184,534.

B2: 3673003: IMAGE clone protein: Ephb3, Eph receptor B3 (protein, UniProt P54754 30-993, looked up)
Ephrin type-B receptor 3: LEETLMDTKWVTSELAWTSHPESGWEEVSGYDEAMNPIRTYQVCNVRESSQNNWLRTGFIWRREVQRVYVELKFTVRDCNSIPNIPGSCKETFNLFYYEADSDVASASSPFWMENPYVKVDTIAPDESFSRLDAGRVNTKVRSFGPLSKAGFYLAFQDQGACMSLISVRAFYKKCASTTAGFALFPETLTGAEPTSLVIAPGTCIANAVEVSVPLKLYCNGDGEWMVPVGACTCATGHEPAAKESQCRACPPGSYKAKQGEGPCLPCPPNSRTTSPAASICTCHNNFYRADSDSADSACTTVPSPPRGVISNVNETSLILEWSEPRDLGGRDDLLYNVICKKCRGSSGAGGPATCSRCDDNVEFVPRQLGLTERRVHISHLLAHTRYTFEVQAVNGVSGKSPLPPRYAAVNITTNQAAPSEVPTLHLHSSSGSSLTLSWAPPERPNGVILDYEMKYFEKSKGIASTVTSQKNSVQLDGLQPDARYVVQVRARTVAGYGQYSHPAEFETTSERGSGAQQLQEQLPLIVGSTVAGFVFMVVVVVIALVCLRKQRHGPDAEYTEKLQQYIAPGMKVYIDPFTYEDPNEAVREFAKEIDVSCVKIEEVIGAGEFGEVCRGRLKLPGRREVFVAIKTLKVGYTERQRRDFLSEASIMGQFDHPNIIRLEGVVTKSRPVMILTEFMENCALDSFLRLNDGQFTVIQLVGMLRGIAAGMKYLSEMNYVHRDLAARNILVNSNLVCKVSDFGLSRFLEDDPSDPTYTSSLGGKIPIRWTAPEAIAYRKFTSASDVWSYGIVMWEVMSYGERPYWDMSNQDVINAVEQDYRLPPPMDCPTALHQLMLDCWVRDRNLRPKFSQIVNTLDKLIRNAASLKVTASAPSGMSQPLLDRTVPDYTTFTTVGDWLDAIKMGRYKESFVGAGFASFDLVAQMTAEDLLRIGVTLAGHQKKILCSIQDMRLQMNQTLPVQV
As for B2, in assay [1], the ECL signal is reported as 10,540. The HTS signal with pEY is on record as 1,174.

B3: 3907115: IMAGE clone protein: Shc1 (protein)
chain: MNKLSGGGGRRTRVEGGQLGGEEWTRHGSFVNKPTRGWLHPNDKVMGPGVSYLVRYMGCVEVLQSMRALDFNTRTQVTREAISLVCEAVPGAKGATRRRKPCSRPLSSILGRSNLKFAGMPITLTVSTSSLNLMAADCKQIIANHHMQSISFASGGDPDTAEYVAYVAKDPVNQRACHILECPEGLAQDVISTIGQAFELRFKQYLRNPPKLVTPHDRMAGFDGSAWDEEEEEPPDHQYYNDFPGKEPPLGGVVDMRLREGAAPGAARPTAPNAQTPSHLGATLPVGQPVGGDPEVRKQMPPPPPCPGRELFDDPSYVNVQNLDKARQAVGGAGPPNPAINGSAPRDLFDMKPFEDALRVPPPPQSVSMAEQLRGEPWFHGKLSRREAEALLQLNGDFLVRESTTTPGQYVLTGLQSGQPKHLLLVDPEGVVRTKDHRFESVSHLISYHMDNHLPIISAGSELCLQQPVERKL
For B3, in assay [2], the “Code (pattern of positive spots)” value is given as “A, B” and the “Peptide determined from code” value is recorded as “EGFR-pTyr1148”. For the same molecule, the “ECL signal, spot A” value in assay [2] (Pool A, EGFR-pTyr1148, IkBa-24ppC, Myc-p58Tp62S) is on record as 260. The “ECL signal, spot B” value in assay [2] (Pool B, EGFR-pTyr992, EGFR-pTyr1148, Smad3C) is on record as 318. Besides, the “ECL signal, spot C” value in assay [2] (Pool C, EGFR-pTyr1068, IkBa-24ppC, Smad3C) is recorded as 24. Besides, the “ECL signal, spot D” value in assay [2] (Pool D, EGFR-pTyr992, EGFR-pTyr1068, Myc-p58Tp62S) is reported as 26.

B4: 3873932: IMAGE clone protein: MATK, megakaryocyte-associated tyrosine kinase (protein, UniProt P42679 1-507, looked up)
Megakaryocyte-associated …: MAGRGSLVSWRAFHGCDSAEELPRVSPRFLRAWHPPPVSARMPTRRWAPGTQCITKCEHTRPKPGELAFRKGDVVTILEACENKSWYRVKHHTSGQEGLLAAGALREREALSADPKLSLMPWFHGKISGQEAVQQLQPPEDGLFLVRESARHPGDYVLCVSFGRDVIHYRVLHRDGHLTIDEAVFFCNLMDMVEHYSKDKGAICTKLVRPKRKHGTKSAEEELARAGWLLNLQHLTLGAQIGEGEFGAVLQGEYLGQKVAVKNIKCDVTAQAFLDETAVMTKMQHENLVRLLGVILHQGLYIVMEHVSKGNLVNFLRTRGRALVNTAQLLQFSLHVAEGMEYLESKKLVHRDLAARNILVSEDLVAKVSDFGLAKAERKGLDSSRLPVKWTAPEALKHGKFTSKSDVWSFGVLLWEVFSYGRAPYPKMSLKEVSEAVEKGYRMEPPEGCPGPVHVLMSSCWEAEPARRPPFRKLAEKLARELRSAGAPASVSGQDADGSTSPRSQEP
Take B4: in assay [1], the ECL signal was 27,372. The HTS signal with pEY is listed as 47,477.
